Columns and labels:
[1] = molecular target: T1, recombinant PSMA (rPSMA) containing a 6x His tag (human, UniProt Q04609 44-750); assay: flow cytometry, rPSMA-6xHis + anti-His; synNotch/CAR-payload T cells without myc beads (CAR not induced); donor #3
T1 construct: Soluble staining reagent, detected with an anti-His antibody; also called prostate-specific membrane antigen
Experimental: (§1) Seven days after transduction, T cells transduced as described in example 1 were harvested to determine transduction efficiencies. 1.5×10⁵ T cells were plated in 96 well plates in duplicate. For canonical CAR T cells, T cells were cultured overnight in hTCM (human T cell media), that included of x-vivo 15 (Lonza (Basel, Switzerland)), 5% human serum (Valley Biomedical (Winchester, Va.)), and 1% Glutamax (Gibco). For synNotch T receptor expressing cells, the T cells were cultured in the presence and absence of myc beads overnight to stimulate the synNotch receptor and therebyinduce CAR expression. After overnight culture, CAR expression was measured using recombinant PSMA (rPSMA) containing a 6× His tag (SEQ ID NO: 260). The cells were stained with an anti-His antibody and the stained cells were detected via flow cytometry. Only cells bound by the rPSMA (and anti-His) are detected to measure expression.

[2] = molecular target: T1, recombinant PSMA (rPSMA) containing a …; assay: flow cytometry, rPSMA-6xHis + anti-His; synNotch/CAR-payload T cells without myc beads (CAR not induced); donor #1
[3] = molecular target: T1, recombinant PSMA (rPSMA) containing a …; assay: flow cytometry of canonical CAR T cells stained with rPSMA-6xHis and anti-His; donor #1
Experimental: as §1

T1 sequence (Q04609 other isoform, or with tags, fused parts or gaps limits assumed): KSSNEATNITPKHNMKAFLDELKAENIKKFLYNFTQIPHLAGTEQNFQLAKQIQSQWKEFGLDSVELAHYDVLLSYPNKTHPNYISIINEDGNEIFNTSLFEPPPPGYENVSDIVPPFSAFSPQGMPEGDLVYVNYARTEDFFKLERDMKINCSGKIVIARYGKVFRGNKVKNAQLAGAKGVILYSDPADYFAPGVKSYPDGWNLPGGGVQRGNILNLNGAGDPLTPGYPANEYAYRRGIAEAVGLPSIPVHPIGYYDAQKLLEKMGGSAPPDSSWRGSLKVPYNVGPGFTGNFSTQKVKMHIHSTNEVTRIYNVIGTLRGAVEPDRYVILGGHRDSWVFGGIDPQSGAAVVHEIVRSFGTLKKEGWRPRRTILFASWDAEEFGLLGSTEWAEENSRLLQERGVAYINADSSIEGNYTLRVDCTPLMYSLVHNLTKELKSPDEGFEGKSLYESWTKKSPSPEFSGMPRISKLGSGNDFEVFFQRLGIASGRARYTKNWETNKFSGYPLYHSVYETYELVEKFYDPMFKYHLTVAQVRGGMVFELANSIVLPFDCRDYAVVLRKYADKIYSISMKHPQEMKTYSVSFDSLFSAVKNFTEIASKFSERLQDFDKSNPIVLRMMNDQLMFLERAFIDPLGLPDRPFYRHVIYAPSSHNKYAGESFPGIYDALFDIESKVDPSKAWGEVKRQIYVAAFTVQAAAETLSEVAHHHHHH

% CAR+ (Unstimulated) [1] [%]	% CAR+ (Unstimulated) [2] [%]	% CAR+ [3] [%]	Binder
4.6	3.2	–	anti-PSMA CAR with Ab3 scFv (other, Chimeric antigen receptor on the surface of transduced human T cells; Constructs 103 (constitutive) and 203 (inducible payload) are treated as the same CAR protein; also called construct 103; construct 203; not shown: CD8a hinge, CD8a transmembrane, 4-1BB and CD3zeta domains) EVQLVESGGGLVQPGGSMRLSCAASGFTFSDYYMAWVRQAPGKGLEWVANINYDGTSTYYADSLKGRFTISRDSSKNTLYLQMNSLRAEDTAVYYCARALDGYYGYLDVWGQGTTVTVSSGSTSGSGKPGSGEGSTKGDIQLTQSPSSLSASVGDRVTLTCRASQSISNNLHWYQQKPGKAPKLLIKYVSQSISGIPSRFSGSGLGTDFTLTISSVQPEDFATYYCQQSNSWPYTFGQGTKLEIK
1.4	–	–	anti-PSMA CAR with Ab2 scFv (other, Chimeric antigen receptor on the surface of transduced human T cells, expressed from the GAL4-inducible payload vector; also called construct 202; Ab6 SynNotch/202; not shown: CD8a hinge, CD8a transmembrane, 4-1BB and CD3zeta domains) DIQMTQSPSSLSASVGDRVTVTCRASQNVNTNVAWYQQKPGKAPKVLIYSASYRNSGVPSRFSGSGSGTDFTLTISSVQPEDFATYYCQQYNSYPFTFGQGTKLEIKGSTSGSGKPGSGEGSTKGQVQLVQSGAEVKKPGASVKLSCKASGYTFTTYWMHWVRQAPGQGLEWIGMIHPNSGSTNYAQKFQGRATLTVDTSTSTAYMELSSLRSEDTAVYYCARDPYDYGEDFDVWGQGTTVTVSS
6.2	3.7	95.4	anti-PSMA CAR with Ab1 scFv (other, Chimeric antigen receptor on the surface of transduced human T cells; Construct 101 is the constitutive EF1a vector and 201 the GAL4-inducible payload vector; also called Abl; construct 101; not shown: CD8a hinge, CD8a transmembrane, 4-1BB and CD3zeta domains) DIQLTQSPSSLSASVGDRVTITCRASSSVSHIYWYQQKPGKAPKPWIYRTSNLASGVPSRFSGSGSGTDYTLTISSLQPEDFATYYCQQYHTYPPTFGQGTKLEIKGSTSGSGKPGSGEGSTKGEVQLVESGGGLVQPGGSMRLSCAASGFTFSDYYMAWVRQAPGKGLEWIANINYDGSNTYYADSLKGRFTISRDNSKNTLYLQMNSLRAEDTAVYYCARNWDGYYGYFDVWGQGTTVTVSS
